The record followed here is patent publication US20240132615A1 (ICHNOS SCIENCES, published 2024).

A word on the Kd: it is a measure of binding affinity in units of concentration. What is called EC50 (read off the curve) is the midpoint of the concentration-response curve.

The target in test [1] is T1, recombinant cynomolgus monkey CD38-ECD-C-his protein (cynomolgus monkey, UniProt Q5VAN0 45-301).
T1 construct: made in house; Q5VAN0 residues 43-301 (residue 44 deleted) with C-terminal 6-His; also called cynomolgus monkey CD38-C-His; recombinant cynomolgus monkey CD38 protein
The test is described as follows: SPR, Fab as analyte, captured cynomolgus CD38-his.

For test [2], the target named is T2, Biotinylated Human CD38 Protein, Avitag, His Tag (Acrobiosystems CD8-H82E7) (human, UniProt P28907 43-300, biotinylated).
T2 construct: bought protein; also called biotinylated recombinant human CD38 protein; human CD38-avi-his
Nature of the test: SPR, Fab as analyte, immobilised biotinylated human CD38.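 Also: biacore T200 at 25 °C, single-cycle kinetics with Fab from 7.8 to 2000 nM, 3 min association then 5 min dissociation, fitted with a 1:1 Langmuir model.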 In general terms: SPR reads the build-up and loss of mass on a sensor chip optically.

Test [3] has as its target T3, recombinant human CD38 antigen for crystallography (hsCD38 ECD) (human, UniProt P28907 45-300).
T3 construct: also called ectodomain of hsCD38
Nature of the test: X-ray crystal structure of the complex, 3.4 Å.

Test [4] deals with T4, human CD3 on cells (HPB-ALL cells, primary human T cells) (human, UniProt P07766 23-207).
T4 construct: whole, on cells; only the epsilon chain is written
Nature of the test: flow cytometry, human CD4+ T cells. On the technique in general: A flow cytometer gives signals particle by particle.

Test [5] deals with T4, human CD3 on cells (HPB-ALL cells, …). Nature of the test: flow cytometry on CD4+ T cells in human PBMCs, anti-human IgG PE secondary.
In test [6] the target is T5, human CD3 on primary human CD38-negative T cells (human, UniProt P07766 23-207; P04234 22-171; P09693 23-182).
T5 construct: whole, on cells; Native CD3 within the TCR/CD3 complex on isolated human T cells, gated CD38-negative
Nature of the test: flow cytometry on CD38-negative primary human T cells, RFI after subtraction of the negative control, six donors.

Test [7] deals with T5, human CD3 on primary human …. Nature of the test: flow cytometry on primary human CD38-negative T cells, one-site binding fit.
Test [8] has as its target T6, human BCMA on multiple myeloma cells (human, UniProt Q02223 1-184).
T6 construct: whole, on cells; Here the protein is the cell lines' own; also called B-cell maturation antigen; TNFRSF17
T6 sequence (looked up): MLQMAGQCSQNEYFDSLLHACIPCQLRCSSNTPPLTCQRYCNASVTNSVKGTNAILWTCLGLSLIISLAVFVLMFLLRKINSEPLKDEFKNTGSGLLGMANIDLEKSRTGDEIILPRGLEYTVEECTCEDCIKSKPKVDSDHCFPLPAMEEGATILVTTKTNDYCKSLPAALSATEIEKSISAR
Nature of the test: flow cytometry on KMS-12-BM cells (BCMA+CD38+), anti-human IgG secondary, RFI.

The target in test [9] is T6, human BCMA on multiple myeloma cells. Nature of the test: flow cytometry on NCI-H929 CD38 KO cells (BCMA++CD38-), anti-human IgG secondary, RFI.
Test [10] has the same target. Nature of the test: flow cytometry on NCI-H929 cells (BCMA++CD38++), anti-human IgG secondary, RFI.
Test [11] has the same target. The test is described as follows: flow cytometry on NCI-H929 CD38 KO cells; one-site binding fit.
The target is the same in test [12]. Nature of the test: flow cytometry on NCI-H929 WT cells; one-site binding fit.
Test [13] shares this target. The test is described as follows: flow cytometry on KMS-12-BM cells; one-site binding fit.
Test [14] addresses T7, human CD3 on primary human T cells (human, UniProt P07766 23-207; P04234 22-171; P09693 23-182; P20963 22-164).
T7 construct: whole, on cells; Endogenous CD3 complex on isolated human T cells, gated CD38-negative; also called CD3-expressing T cells; human CD38 negative T cells
The test is described as follows: flow cytometry on isolated human primary T cells gated CD38-negative; one-site binding fit.

Test [15] concerns the target T8, human CD38 on multiple myeloma cells (human, UniProt P28907 1-300).
T8 construct: whole, on cells; Here the protein is the cell lines' own
The test is described as follows: flow cytometry on NCI-H929 BCMA KO cells (BCMA-CD38++), anti-human IgG secondary, RFI.

T4 sequence (P07766 23-207): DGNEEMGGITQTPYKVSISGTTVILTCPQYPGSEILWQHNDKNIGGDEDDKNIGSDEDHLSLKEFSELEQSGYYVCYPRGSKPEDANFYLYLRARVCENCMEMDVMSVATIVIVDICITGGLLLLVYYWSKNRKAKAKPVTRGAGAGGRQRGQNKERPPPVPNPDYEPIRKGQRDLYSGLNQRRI
T5 sequence (P07766 23-207, chain 1 of 3): as the sequence (P07766 23-207) above
T5 sequence (P04234 22-171, chain 2 of 3): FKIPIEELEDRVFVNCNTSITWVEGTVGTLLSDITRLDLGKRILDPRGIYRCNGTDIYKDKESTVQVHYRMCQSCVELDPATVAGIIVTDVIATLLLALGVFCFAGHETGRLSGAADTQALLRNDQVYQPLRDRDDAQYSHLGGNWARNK
T5 sequence (P09693 23-182, chain 3 of 3): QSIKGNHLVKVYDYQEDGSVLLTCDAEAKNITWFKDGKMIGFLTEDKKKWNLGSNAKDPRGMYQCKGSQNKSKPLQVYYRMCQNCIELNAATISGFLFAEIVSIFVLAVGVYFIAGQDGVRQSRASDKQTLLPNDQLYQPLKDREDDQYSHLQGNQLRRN
T7 sequence (P07766 23-207, chain 1 of 4): as the sequence (P07766 23-207) above
T7 sequence (P04234 22-171, chain 2 of 4): as the sequence (P04234 22-171, chain 2 of 3) above
T7 sequence (P09693 23-182, chain 3 of 4): as the sequence (P09693 23-182, chain 3 of 3) above
T7 sequence (P20963 22-164, chain 4 of 4): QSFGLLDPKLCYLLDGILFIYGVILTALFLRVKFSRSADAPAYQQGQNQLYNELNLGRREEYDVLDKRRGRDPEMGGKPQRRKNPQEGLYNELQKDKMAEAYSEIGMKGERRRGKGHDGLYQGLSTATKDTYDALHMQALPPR

B1: Anti-CD38-UCP03-B3 FAB (Fab, V domains shown)
VH: QVQLVQSGAEVKKPGSSVKVSCKASGGDFTLYSISWVRQAPGQGLEWMGRIIPTGANANYAQKFQGRVTITADESTSTAYMELSSLRSEDTAVYYCARSWPSLGSGWFDIWGQGTLVTVSS
VL: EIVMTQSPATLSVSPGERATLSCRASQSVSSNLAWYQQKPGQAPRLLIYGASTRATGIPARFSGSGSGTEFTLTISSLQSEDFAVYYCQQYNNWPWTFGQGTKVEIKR
notes: Fab; also called anti-CD38-B3; anti-CD38-B3 Fab
For the molecule B1, the figures for the Kd in test [1] and in test [2] were 170 nM and 115 nM, respectively. Also, in test [3], the binding result is “binds”.

B2: Anti-CD3-UCP06-C1 IgG1LALA (antibody, V domains shown)
VH: QVQLVQSGAEVKKPGSSVKVSCKASGGKFSRYAISWVRQAPGQGLEWMGGIIPKGGYAEYAQKFQGRVTITADESTSTAYMELSSLRSEDTAVYYCARYGYSLYMDIWGQGTLVTVSS
VL: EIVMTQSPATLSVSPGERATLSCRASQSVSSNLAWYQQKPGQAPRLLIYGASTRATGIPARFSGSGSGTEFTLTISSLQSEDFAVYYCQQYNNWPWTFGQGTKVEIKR
notes: IgG1 LALA; also called anti-CD3-C1
Regarding B2, the “MFI at 800 nM” value in test [4] is 45200 MFI. Also, the “EC50 (read off the curve)” value in [5] is approximately 40 nM.

B3: Anti-CD3-UCP07-A4 IgG1LALA (antibody, V domains shown)
VH: EVQLLESGGGLVQPGGSLRLSCAASGSTFRRYVMGWVRQAPGKGLEWVSAISQQGGYTYYADSVKGRFTISRDNSKNTLYLQMNSLRAEDTAVYYCARSSSSAFDVWGQGTLVTVSS
VL: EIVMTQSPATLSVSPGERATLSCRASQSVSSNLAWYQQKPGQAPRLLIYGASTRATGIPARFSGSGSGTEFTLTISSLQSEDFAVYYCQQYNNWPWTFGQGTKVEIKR
notes: IgG1 LALA
As for B3, in [5], the binding result is reported as “no binding (tested: 800 nM)”.

B4: TNB-F2B BEAT Fc (bispecific antibody, human IgG1, kappa, L234A L235A)
chain 1: EVQLVESGGGLVQPGRSLRLSCAASGFTFDDYAMHWVRQAPGKGLEWVSGISWNSGSIGYADSVKGRFTISRDNAKNSLYLQMNSLRAEDTALYYCAKDSRGYGDYRLGGAYWGQGTLVTVSSASTKGPSVFPLAPSSKSTSGGTAALGCLVKDYFPEPVTVSWNSGALTSGVHTFPAVLQSSGLYSLSSVVTVPSSSLGTQTYICNVNHKPSNTKVDKKVEPKSCDKTHTCPPCPAPEAAGGPSVFLFPPKPKDTLMISRTPEVTCVVVDVSHEDPEVKFNWYVDGVEVHNAKTKPREEQYNSTYRVVSVLTVLHQDWLNGKEYKCKVSNKALPAPIEKTISKAKGQPREPAVYTLPPSREEMTKNQVKLVCLVTGFYPSDIAVEWESSGQPENNYYTTPPMLDSDGSFSLVSWLNVDKSRWQQGNIFSCSVMHEALHNRFTQKSLSLSPG
chain 2: EVQLLESGGGLVQPGGSLRLSCAASGFTVSSYGMSWVRQAPGKGPEWVSGIRGSDGSTYYADSVKSRFTISRDNSKNTLYLQMNSLRAEDTAVYYCAKQGENDGPFDHRGQGTLVTVSSGGGGSEVQLLESGGGLVQPGGSLRLSCAASGFTVSSYGMSWVRQAPGKGPEWVSGIRGSDGSTYYADSVKSRFTISRDNSKNTLYLQMNSLRAEDTAVYYCAKQGENDGPFDHRGQGTLVTVSSGGGGTDKTHTCPPCPAPEAAGGPSVFLFPPKPKDTLMISRTPEVTCVVVDVSHEDPEVKFNWYVDGVEVHNAKTKPREEQYNSTYRVVSVLTVLHQDWLNGKEYKCKVSNKALPAPIEKTISKAKGQPREPEVATFPPSRDELTKNQVTLVCLVTGFYPSDIAVEWESNGQPENNYKTDPPLLESQGSFALSSRLRVDKSRWQQGNVFSCSVMHEALHNHYTQKSLSLSPG
light: not shown
notes: CD3 Fab (TNB-F2B) x BCMA dAb-dAb (TNB-BCMA) on a silenced (LALA) BEAT Fc; also called CD3xBCMA benchmark
Regarding B4, the binding result in test [6] is “no binding (tested: 800 nM)”. For the same molecule, the “Max binding (RFI)” value in [7] was 60 RFI.

B5: alnuctamab (bispecific antibody)
chain 1: EVQLLESGGGLVQPGGSLRLSCAASGFTFSDNAMGWVRQAPGKGLEWVSAISGPGSSTYYADSVKGRFTISRDNSKNTLYLQMNSLRAEDTAVYYCAKVLGWFDYWGQGTLVTVSSASTKGPSVFPLAPSSKSTSGGTAALGCLVEDYFPEPVTVSWNSGALTSGVHTFPAVLQSSGLYSLSSVVTVPSSSLGTQTYICNVNHKPSNTKVDEKVEPKSCDKTHTCPPCPAPEAAGGPSVFLFPPKPKDTLMISRTPEVTCVVVDVSHEDPEVKFNWYVDGVEVHNAKTKPREEQYNSTYRVVSVLTVLHQDWLNGKEYKCKVSNKALGAPIEKTISKAKGQPREPQVCTLPPSRDELTKNQVSLSCAVKGFYPSDIAVEWESNGQPENNYKTTPPVLDSDGSFFLVSKLTVDKSRWQQGNVFSCSVMHEALHNHYTQKSLSLSPGK
chain 2: EIVLTQSPGTLSLSPGERATLSCRASQSVSDEYLSWYQQKPGQAPRLLIHSASTRATGIPDRFSGSGSGTDFTLAISRLEPEDFAVYYCQQYGYPPDFTFGQGTKVEIKRTVAAPSVFIFPPSDRKLKSGTASVVCLLNNFYPREAKVQWKVDNALQSGNSQESVTEQDSKDSTYSLSSTLTLSKADYEKHKVYACEVTHQGLSSPVTKSFNRGEC
chain 3: not shown
chain 4: EVQLLESGGGLVQPGGSLRLSCAASGFTFSTYAMNWVRQAPGKGLEWVSRIRSKYNNYATYYADSVKGRFTISRDDSKNTLYLQMNSLRAEDTAVYYCVRHGNFGNSYVSWFAYWGQGTLVTVSSASVAAPSVFIFPPSDEQLKSGTASVVCLLNNFYPREAKVQWKVDNALQSGNSQESVTEQDSKDSTYSLSSTLTLSKADYEKHKVYACEVTHQGLSSPVTKSFNRGEC
On to B5, for which the concentration giving a half-maximal response (EC50 (read off the curve)) was approximately 3 nM in [8], approximately 7 nM in test [9] and approximately 6 nM in test [10]. Moreover, the Kd in test [11] was found to be 8.1 nM; in test [12], 6 nM; in test [13] it was 3.9 nM; in test [14], 252 nM.

B6: 83A10-TCBcv (bispecific antibody, human IgG1, kappa, L234A L235A)
chain 1: not shown
chain 2: not shown
chain 3: not shown
chain 4: B5 chain 4
notes: Comparator CD3xBCMA bispecific antibody; also called CD3 x BCMA benchmark
With B6, the binding result in test [15] is given as “no binding (tested: 800 nM)”. Besides, the affinity in test [14], expressed as Kd, was 155 nM.

B7: 83A10-TCBcv (bispecific antibody, human IgG1, kappa, L234A L235A)
chain 1: not shown
chain 2: not shown
chain 3: not shown
chain 4: B5 chain 4
notes: CD3xBCMA bispecific comparator; also called EM-801; CD3xBCMA benchmark
For the molecule B7, in [7], the Kd was found to be 80 nM and the “Max binding (RFI)” value was 103000 RFI.

B8: Anti-CD3-UCP07-B2 IgG1LALA (antibody, V domains shown)
VH: EVQLVESGGGLVKPGGSLRLSCAASGFDFGKAWMAWVRQAPGKGLEWVGRIKSDFKGGDTIYAAPVKGRFTISRDDSKNTLYLQMNSLKTEDTAVYYCARGRSRGVSEFDYWGQGTLVTVSS
VL: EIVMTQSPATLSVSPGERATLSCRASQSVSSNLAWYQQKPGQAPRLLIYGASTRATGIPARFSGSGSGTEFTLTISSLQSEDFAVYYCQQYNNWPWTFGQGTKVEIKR
notes: IgG1 LALA
In the case of B8, in [5], the binding result is “no binding (tested: 800 nM)”.

B9: Anti-CD3-UCP07-F3 IgG1LALA (antibody, V domains shown)
VH: EVQLLESGGGLVQPGGSLRLSCAASGFNFSGHAVGWVRQAPGKGLEWVSAISQNGGYTLYADSVKGRFTISRDNSKNTLYLQMNSLRAEDTAVYYCARAASYGLDYALDIWGQGTLVTVSS
VL: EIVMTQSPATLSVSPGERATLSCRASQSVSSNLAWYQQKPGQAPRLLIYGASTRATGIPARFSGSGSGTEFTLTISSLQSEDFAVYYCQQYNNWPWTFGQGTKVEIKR
notes: IgG1 LALA
B9: the binding result in [5] is “no binding (tested: 800 nM)”.
